Measurements published in publication PMC5642108.

B1: 18 bp dsDNA (EMSA) (dsDNA)
DNA 1: CAGGCTATAAAAGGGACG
DNA 2: CGTCCCTTTTATAGCCTG
B2: smFRET DNA (18 bp with 19 nt 3' overhang) (dsDNA)
DNA 1: CAGGCTATAAAAGGGACG
DNA 2: CGTCCCTTTTATAGCCTGATACAAGCAGCAGTCACCA

Tests used:
[1] = target: T1, FL HMGB1 (human, UniProt P09429 1-215, C23S;C45S;C106S;E204C); test: EMSA
Target sequence in this assay (P09429 whole entry C23S/C45S/C106S/E204C): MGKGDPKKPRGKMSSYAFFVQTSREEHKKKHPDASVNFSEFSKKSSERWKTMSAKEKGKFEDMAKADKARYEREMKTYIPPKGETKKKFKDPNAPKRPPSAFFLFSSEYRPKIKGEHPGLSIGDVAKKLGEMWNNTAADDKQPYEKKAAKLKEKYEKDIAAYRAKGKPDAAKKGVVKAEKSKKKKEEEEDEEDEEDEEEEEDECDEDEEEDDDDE

[2] = target: T2, AB (HMGB1 without C-terminal tail) (human, UniProt P09429 1-166, C23S;C45S;C106S;S35C); test: EMSA
[3] = target: AB-F38A (human, UniProt P09429 1-166, C23S;F38A;C45S;C106S;S35C); test: smFRET
[4] = target: T1, FL HMGB1; test: smFRET
[5] = target: T3, A box (human, UniProt P09429 1-85, C23S;C45S;S35C); test: smFRET
T3 sequence: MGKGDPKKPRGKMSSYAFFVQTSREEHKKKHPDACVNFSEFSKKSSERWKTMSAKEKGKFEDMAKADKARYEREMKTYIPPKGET

[6] = target: B box (human, UniProt P09429 83-166, C106S;A137C); test: smFRET
Sequence of B box (P09429 83-166 C106S/A137C): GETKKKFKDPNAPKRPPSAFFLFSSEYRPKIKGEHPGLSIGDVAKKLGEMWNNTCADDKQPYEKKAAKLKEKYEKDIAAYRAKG

[7] = target: T2, AB (HMGB1 without C-terminal tail); test: smFRET

| Binder | Kd [1] [nM] | Kd [2] [nM] | binding result [3] | binding result [4] | binding result [5] | binding result [6] | binding result [7] |
| --- | --- | --- | --- | --- | --- | --- | --- |
| B1 | 10 | 5 | – | – | – | – | – |
| B2 | – | – | binds | binds | binds | binds | binds |
